Data as given in PMC12796453.

Tests used:
Experiment in all cases: SPR
[1] = biological target: afucosylated agalactosylated KiH-A330W anti-DENV2 E protein IgG1 (C10) (human)
[2] = biological target: monofucosylated A330W E269I KiH Rituximab IgG1 (human)
[3] = biological target: monoglycosylated bifucosylated IgG (human)
[4] = biological target: bifucosylated A330W E269M KiH Rituximab IgG1 (human)
[5] = biological target: monofucosylated A330W E269M KiH Rituximab IgG1 (human)
[6] = biological target: monoglycosylated monofucosylated IgG (human)
[7] = biological target: afucosylated A330W E269I KiH Rituximab IgG1 (human)
[8] = biological target: bifucosylated A330W E269I KiH Rituximab IgG1 (human)

soluble human FcγRIIIA-F158 ectodomain (from UniProt P08637 17-208) (receptor)
Kd [1]: 39 nM
Kd [2]: 698 nM
Kd [3]: 1640 nM
Kd [4]: 1480 nM
Kd [5]: 119 nM
Kd [6]: 554 nM
Kd [7]: 159 nM
Kd [8]: 2070 nM
